{"source": "paper PMC7560960", "about": "(Cellular microbiology, 2018)", "molecules": {"B1": {"name": "recombinant LIC10831, histidine tag removed (natural protein)", "chain": "EEPGTYRDLTKALQNPLEVRVLDLSRQELKTLPIEIGKLKNLQRLYLHYNQLTVLPQEIEQLKNLQLLYLRSNRLTTLPKEIEQLKNLQVLDLGSNQLTVLPQEIEQLKNLQLLYLHSNRLTTLSKDIEQLQNLKSLDLSNNQLTTLPNEIEQLKNLKSLYLSENQFATFPKEIGQLQNLKVLFLNNNQITILPNEIAKLKKLQYLYLSDNQLITLPKEIEQLKNLQTLDLSYNQLTILPKEVGQLENLQTLDLRNNQLKTLPKEIEQLKNLQTLFLSNNQLTILPQEIGKLKNLLWLSLVYNQLTTLPNEIEQLKNLQTLYLNNNQFSSQEKKRIRKLLPKCQIYFD"}}, "key": {"[1]": {"target": "E-cadherin (Homo sapiens) (UniProt P12830)", "sequence (P12830 155-709)": "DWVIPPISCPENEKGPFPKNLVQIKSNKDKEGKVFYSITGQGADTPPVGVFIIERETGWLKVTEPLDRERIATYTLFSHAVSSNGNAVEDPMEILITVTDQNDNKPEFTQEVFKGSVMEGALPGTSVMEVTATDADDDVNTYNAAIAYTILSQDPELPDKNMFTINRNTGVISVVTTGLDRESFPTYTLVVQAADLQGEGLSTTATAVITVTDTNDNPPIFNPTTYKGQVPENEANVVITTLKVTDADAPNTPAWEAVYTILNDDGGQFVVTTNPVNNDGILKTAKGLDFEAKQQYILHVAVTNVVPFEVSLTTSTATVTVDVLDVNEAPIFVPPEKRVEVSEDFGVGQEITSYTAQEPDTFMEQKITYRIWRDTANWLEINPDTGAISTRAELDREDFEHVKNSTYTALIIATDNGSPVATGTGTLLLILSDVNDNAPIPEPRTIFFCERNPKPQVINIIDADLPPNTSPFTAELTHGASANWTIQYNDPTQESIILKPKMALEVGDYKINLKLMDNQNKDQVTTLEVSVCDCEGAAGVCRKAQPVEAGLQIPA", "conditions": "cited from earlier work"}, "[2]": {"target": "T1, recombinant human E-Cad (Gln23 - Pro621 fused to human IgG Fc) (human, UniProt P12830 23-621)", "T1 sequence (looked up)": "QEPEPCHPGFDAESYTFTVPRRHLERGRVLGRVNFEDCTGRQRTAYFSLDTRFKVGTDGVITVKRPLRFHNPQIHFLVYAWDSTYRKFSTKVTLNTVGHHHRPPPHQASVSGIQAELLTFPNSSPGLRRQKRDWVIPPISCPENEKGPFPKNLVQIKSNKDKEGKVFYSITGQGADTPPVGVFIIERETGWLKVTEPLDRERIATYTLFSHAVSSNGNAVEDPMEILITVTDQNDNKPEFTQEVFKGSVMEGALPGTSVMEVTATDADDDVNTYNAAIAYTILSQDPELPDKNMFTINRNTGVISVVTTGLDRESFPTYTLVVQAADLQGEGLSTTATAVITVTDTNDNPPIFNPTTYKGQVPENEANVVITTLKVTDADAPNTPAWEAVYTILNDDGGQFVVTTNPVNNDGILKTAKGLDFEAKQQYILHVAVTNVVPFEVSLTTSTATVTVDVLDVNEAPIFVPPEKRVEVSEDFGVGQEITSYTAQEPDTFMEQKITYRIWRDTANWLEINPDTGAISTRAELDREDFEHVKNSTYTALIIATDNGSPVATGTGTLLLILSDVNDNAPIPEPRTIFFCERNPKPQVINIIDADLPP", "experiment": "SPR"}, "[3]": {"target": "T2, recombinant human VE-cad (Asp48-Gln593 fused to human IgG Fc) (human, UniProt P33151 48-593)", "T2 sequence (looked up)": "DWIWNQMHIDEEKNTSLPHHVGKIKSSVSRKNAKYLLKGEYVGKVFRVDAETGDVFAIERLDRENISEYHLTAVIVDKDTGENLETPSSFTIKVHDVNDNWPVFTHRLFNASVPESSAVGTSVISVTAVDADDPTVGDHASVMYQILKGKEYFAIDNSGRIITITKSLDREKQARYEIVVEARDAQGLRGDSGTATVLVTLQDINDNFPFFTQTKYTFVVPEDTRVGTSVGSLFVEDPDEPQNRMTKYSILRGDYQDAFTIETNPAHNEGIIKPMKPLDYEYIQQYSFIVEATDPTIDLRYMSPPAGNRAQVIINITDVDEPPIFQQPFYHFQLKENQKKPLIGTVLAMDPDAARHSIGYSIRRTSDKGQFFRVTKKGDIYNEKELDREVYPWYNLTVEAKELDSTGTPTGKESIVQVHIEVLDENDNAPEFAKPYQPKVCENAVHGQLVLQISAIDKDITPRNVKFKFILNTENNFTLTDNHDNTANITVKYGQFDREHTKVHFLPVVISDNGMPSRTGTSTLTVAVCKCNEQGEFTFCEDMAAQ", "experiment": "SPR"}}}
{"molecule": "InlA (from UniProt P0DJM0)", "values": [{"measurement": "Kd", "setting": "[1]", "result": 8, "unit": "µM"}]}
{"molecule": "B1", "values": [{"measurement": "Kd", "setting": "[2]", "result": 2.3, "unit": "µM"}, {"measurement": "Kd", "setting": "[3]", "result": 5.8, "unit": "µM"}]}
